Results reported in US20030186281A1, “Modified tetracycline repressor protein compositions and methods of use” (priority 2001, published 2003).

Test system: tet operator sequence
Assay: β-galactosidase activity of a tetracycline-regulated promoter in transformed E. coli with revTetR, in the presence and absence of anhydrotetracycline (atc)
Assay type: cell-based, Escherichia coli
Details: for β-Galactosidase Activity, Cultured Without ATC: RevTetR isolate cultured in the absence of anhydrotetracycline (ATC); for β-Galactosidase Activity, Cultured With ATC: RevTetR isolate cultured in the presence of anhydrotetracycline (ATC)
In short: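 TetR(BD) chimera mutants (TetR(B) residues 1–50, TetR(D) 51–208) expressed in E. coli regulating a tet operator-controlled lacZ. β-Galactosidase measured in Miller units at 28 °C and 37 °C with and without anhydrotetracycline; reported as percent of maximal expression without Tet repressor.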

| Molecule | β-Galactosidase Activity, Cultured Without ATC | β-Galactosidase Activity, Cultured With ATC |
| --- | --- | --- |
| TetRrev29/35: revTetR(BD) L17S E23D (protein, Modified tetracycline repressor, revTetR(BD) L17S E23D) MSRLDKSKVINSAEELSNEGGIDGLTTRKLAQKLGVEQPTLYWHVKNKRALLDALAVEILARHHDYSLPAAGESWQSFLRNNAMSFRRALLRYRDGAKVHLGTRPDEKQYDTVETQLRFMTENGFSLRDGLYAISAVSHFTLGAVLEQQEHTAALTDRPAAPDENLPPLLREALQIMDSDDGEQAFLHGLESLIRGFEVQLTALLQIV | 58.0891 | 2.1051 |
| TetRrevAtc4-1: revTetR(BD) A50S D53F A56G V57I H63Q (protein, Modified tetracycline repressor, revTetR(BD) A50S D53F A56G V57I H63Q) MSRLDKSKVINSALELLNEVGIEGLTTRKLAQKLGVEQPTLYWHVKNKRSLLFALGIEILARQHDYSLPAAGESWQSFLRNNAMSFRRALLRYRDGAKVHLGTRPDEKQYDTVETQLRFMTENGFSLRDGLYAISAVSHFTLGAVLEQQEHTAALTDRPAAPDENLPPLLREALQIMDSDDGEQAFLHGLESLIRGFEVQLTALLQIV | 100.076 | 6.9011 |
| TetRrev29/42: revTetR(BD) E19D G96R (protein, Modified tetracycline repressor, revTetR(BD) E19D G96R) MSRLDKSKVINSALDLLNEVGIEGLTTRKLAQKLGVEQPTLYWHVKNKRALLDALAVEILARHHDYSLPAAGESWQSFLRNNAMSFRRALLRYRDRAKVHLGTRPDEKQYDTVETQLRFMTENGFSLRDGLYAISAVSHFTLGAVLEQQEHTAALTDRPAAPDENLPPLLREALQIMDSDDGEQAFLHGLESLIRGFEVQLTALLQIV | 96.187 | 11.861 |
| TetRrev29/52: revTetR(BD) L14V L17V N18K V20V G24G (protein, Modified tetracycline repressor, revTetR(BD) L14V L17V N18K V20V G24G) MSRLDKSKVINSAVELVKEVGIEGLTTRKLAQKLGVEQPTLYWHVKNKRALLDALAVEILARHHDYSLPAAGESWQSFLRNNAMSFRRALLRYRDGAKVHLGTRPDEKQYDTVETQLRFMTENGFSLRDGLYAISAVSHFTLGAVLEQQEHTAALTDRPAAPDENLPPLLREALQIMDSDDGEQAFLHGLESLIRGFEVQLTALLQIV | 48.4964 | 3.3035 |
